{"source": "patent US20250057968A1", "about": "“ANTI-DLL3 ANTIBODY AND PHARMACEUTICAL USE THEREOF, AND ANTIBODY-DRUG CONJUGATE CONTAINING ANTI-DLL3 ANTIBODY” (Jiangsu Hengrui Pharmaceuticals Co., Ltd., priority 2021, published 2025)", "key": {"RatDLL3/CHO-s": {"target": "T1, RatDLL3/CHO-s (Rattus norvegicus, UniProt O88671)", "T1 construct": "Rat DLL3 full-length protein; expressed in transfected cells; host or cells: CHO-s (Invitrogen, R80007), lentiviral transduction", "T1 sequence (O88671 33-589)": "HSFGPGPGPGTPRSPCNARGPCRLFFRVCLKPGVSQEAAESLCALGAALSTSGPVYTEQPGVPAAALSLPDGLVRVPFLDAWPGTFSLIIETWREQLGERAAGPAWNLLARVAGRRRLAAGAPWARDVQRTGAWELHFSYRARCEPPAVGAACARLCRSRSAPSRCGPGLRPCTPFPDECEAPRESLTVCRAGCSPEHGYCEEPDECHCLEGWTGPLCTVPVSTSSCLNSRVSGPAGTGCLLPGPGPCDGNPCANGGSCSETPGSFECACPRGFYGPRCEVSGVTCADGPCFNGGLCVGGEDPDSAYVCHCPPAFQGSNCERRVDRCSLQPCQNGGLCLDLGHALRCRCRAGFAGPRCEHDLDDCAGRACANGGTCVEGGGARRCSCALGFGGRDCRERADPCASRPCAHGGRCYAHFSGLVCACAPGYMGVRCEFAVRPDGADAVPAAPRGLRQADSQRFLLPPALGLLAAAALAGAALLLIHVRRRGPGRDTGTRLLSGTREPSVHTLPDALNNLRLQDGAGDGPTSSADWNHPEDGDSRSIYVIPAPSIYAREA", "experiment": "Cell-level FACS binding assay, RatDLL3/CHO-s cells", "description": "(§1) Cells of the DLL3-expressing small cell lung cancer cell lines H1184 (ATCC, Cat. No. CRL-5858), DLL3/H82, cynoDLL3/CHO-s, and RatDLL3/CHO-s were suspended at 1×10^6/mL in FACS buffer (1% BSA+pH 7.4 PBS), and the cell suspensions were added to a 96-well round-bottom plate (Corning, 3795) at 100 μL/well. The plate was centrifuged at 300 g for 5 min, and the supernatant was removed. Different concentrations of test antibodies were added at 100 μL/well. The plate was incubated in the dark in a refrigerator at 4° C. for 1 h. After 3 washes by centrifugation at 300 g, working concentrations of APC anti-human IgG Fc (BioLegend, 410712) or PE F(ab′)2-goat anti-human IgG (invitrogen, H10104) were added. The plate was incubated in the dark in a refrigerator at 4° C. for 40 min. After 3 washes by centrifugation at 300 g, the geometric mean fluorescence intensity was measured on an Invitrogen flow cytometer, and the EC50 values of the antibodies in binding to DLL3-expressing cells were calculated. The results are shown in Table 11-1, Table 11-2, Table 11-3, and FIG. 1A to FIG. 1C."}, "[1]": {"target": "T2, Human DLL3 full-length protein on cells (human, UniProt Q9NYJ7 27-618)", "T2 construct": "H1184 and DMS53 express DLL3 themselves; The cell line is named under assay; also called H1184 cells; DLL3/H82", "T2 sequence": "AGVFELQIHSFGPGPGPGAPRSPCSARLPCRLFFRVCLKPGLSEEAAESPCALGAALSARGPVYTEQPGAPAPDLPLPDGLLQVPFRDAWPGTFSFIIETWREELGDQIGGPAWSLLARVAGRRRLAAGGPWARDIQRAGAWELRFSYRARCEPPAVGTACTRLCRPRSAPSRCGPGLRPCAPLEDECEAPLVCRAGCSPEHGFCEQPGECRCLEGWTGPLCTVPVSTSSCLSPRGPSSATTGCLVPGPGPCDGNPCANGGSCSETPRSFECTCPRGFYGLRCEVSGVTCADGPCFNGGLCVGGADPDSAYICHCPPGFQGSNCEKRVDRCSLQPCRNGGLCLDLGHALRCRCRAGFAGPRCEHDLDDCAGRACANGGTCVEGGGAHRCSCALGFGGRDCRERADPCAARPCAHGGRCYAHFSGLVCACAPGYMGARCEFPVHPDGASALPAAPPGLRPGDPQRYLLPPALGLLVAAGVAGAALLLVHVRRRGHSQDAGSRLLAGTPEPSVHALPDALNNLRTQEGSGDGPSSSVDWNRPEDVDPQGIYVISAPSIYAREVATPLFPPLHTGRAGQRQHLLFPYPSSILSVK", "experiment": "FACS on H1184 cells", "description": "as §1, with “calculated.” for “calculated. The results are shown in Table 11-1, Table 11-2, Table 11-3, and FIG. 1A to FIG. 1C.”"}, "[2]": {"target": "T3, Cynomolgus monkey DLL3 full-length protein on CHO-s cells (cynomolgus monkey, UniProt Q9NYJ7 27-618 (human entry))", "T3 construct": "also called cynoDLL3/CHO-s", "T3 chain": "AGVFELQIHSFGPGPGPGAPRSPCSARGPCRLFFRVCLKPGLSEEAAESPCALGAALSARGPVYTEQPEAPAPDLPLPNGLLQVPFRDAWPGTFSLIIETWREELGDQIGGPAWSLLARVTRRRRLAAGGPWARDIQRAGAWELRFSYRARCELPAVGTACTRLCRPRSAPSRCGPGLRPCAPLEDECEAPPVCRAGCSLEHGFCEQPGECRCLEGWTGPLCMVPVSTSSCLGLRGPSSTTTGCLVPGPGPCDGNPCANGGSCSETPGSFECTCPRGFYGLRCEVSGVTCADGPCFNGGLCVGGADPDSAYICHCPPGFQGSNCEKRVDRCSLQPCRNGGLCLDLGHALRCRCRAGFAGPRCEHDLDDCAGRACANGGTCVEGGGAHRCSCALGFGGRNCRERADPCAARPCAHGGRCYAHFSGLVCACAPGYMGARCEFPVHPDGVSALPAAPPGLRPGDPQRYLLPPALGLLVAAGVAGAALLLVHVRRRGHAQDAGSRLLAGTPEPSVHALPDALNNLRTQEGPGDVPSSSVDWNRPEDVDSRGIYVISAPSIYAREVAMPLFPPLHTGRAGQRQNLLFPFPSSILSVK", "experiment": "FACS on cynoDLL3/CHO-s cells", "description": "as §1, with “calculated.” for “calculated. The results are shown in Table 11-1, Table 11-2, Table 11-3, and FIG. 1A to FIG. 1C.”"}, "[3]": {"target": "T2, Human DLL3 full-length protein on cells", "experiment": "cell-based or functional assay"}, "[4]": {"target": "T4, hDLL3(ECD)-strep twin, biotinylated (human, UniProt Q9NYJ7 27-492, biotinylated (site not stated))", "T4 construct": "also called Biotinylated DLL3 antigen; Biotinylated DLL3-Strep", "experiment": "competition ELISA: BI-764532 coated on the plate (1 µg/mL), biotinylated DLL3-Strep (0.1 µg/mL) with soluble BI-764532 as competitor, streptavidin-peroxidase detection, OD450", "description": "The plate was washed 3 times with 250 μL of PBST solution per well. The plate was blocked with 250 μL of 5% milk per well at 37° C. for 2 h. The plate was washed 3 times with 250 μL of PBST solution per well. […] The plate was washed 6 times with 250 μL of PBST solution per well. […] The plate was washed 6 times with 250 μL of PBST solution per well. TMB (KPL, 5120-0077) substrate solution was added at 100 μL/well, and color development was allowed at room temperature for 5-10 min."}, "[5]": {"target": "T5, Rat DLL3 full-length protein on CHO-s cells (rat, UniProt O88671 33-589)", "T5 construct": "also called RatDLL3/CHO-s; ratDLL3/CHO-s", "T5 sequence": "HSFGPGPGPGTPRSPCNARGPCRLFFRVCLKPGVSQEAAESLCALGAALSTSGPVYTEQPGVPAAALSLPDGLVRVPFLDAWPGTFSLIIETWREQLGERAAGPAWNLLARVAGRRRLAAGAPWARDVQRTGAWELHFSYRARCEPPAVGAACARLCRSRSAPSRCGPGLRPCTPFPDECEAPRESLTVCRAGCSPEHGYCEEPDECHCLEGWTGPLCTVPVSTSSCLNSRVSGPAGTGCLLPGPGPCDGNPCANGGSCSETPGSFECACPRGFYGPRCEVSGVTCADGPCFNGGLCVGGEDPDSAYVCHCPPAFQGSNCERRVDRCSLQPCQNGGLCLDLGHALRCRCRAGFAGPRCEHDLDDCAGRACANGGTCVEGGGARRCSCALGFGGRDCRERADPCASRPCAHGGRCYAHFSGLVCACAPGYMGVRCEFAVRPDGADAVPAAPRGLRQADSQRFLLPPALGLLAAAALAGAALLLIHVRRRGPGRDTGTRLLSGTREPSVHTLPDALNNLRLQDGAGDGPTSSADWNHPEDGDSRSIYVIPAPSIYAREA", "experiment": "FACS on RatDLL3/CHO-s cells", "description": "as §1, with “calculated.” for “calculated. The results are shown in Table 11-1, Table 11-2, Table 11-3, and FIG. 1A to FIG. 1C.”"}, "[6]": {"target": "T2, Human DLL3 full-length protein on cells", "experiment": "cell-based or functional assay", "remark": "listed apart in the source"}}, "data": [{"molecule": "BI-764532: positive control molecule, constructed by reference to WO2019234220A1; heavy chain SEQ ID NO: 62, light chain SEQ ID NO: 63 [reference compound]", "values": [{"measurement": "binding to cells expressing rat DLL3 (in words)", "setting": "RatDLL3/CHO-s", "value": "No binding"}]}, {"molecule": "hAb6L4H6 (antibody, human IgG1, kappa, V domains shown) VH: EVQLVQSGSELKKPGASVKVSCKASGYTFTDYYMNWVRQAPGQGLEWMGIINPYSGVTIYNHKFKGRFVLSVDKSSNTAYLQISSLKAEDTAVYYCARQDSLLDYAMDYWGQGTTVTVSS VL: DIQMTQSPSSLSASVGDRVTITCHASQGISGNMGWLQQKPGKAPKGLIYHGANLEDGVPSRFSGSGSGADYTLTISSLQPEDFADYYCVQYAQFPYTFGGGTKVEIKR", "values": [{"measurement": "EC50", "setting": "[1]", "value": 0.17, "unit": "nM"}, {"measurement": "Emax", "setting": "[1]", "value": 2000}]}, {"molecule": "BI-764532 (antibody, human IgG1, kappa, V domains shown, also called positive control molecule) VH: QVQLVQSGAEVKKPGASVKVSCKASGYTFTSYYVHWVRQAPGQGLEWMVIINPGGGTTSYAQKFLGRVTMTRDTSTNTVYMELKSLRSEDTAVYYCARGEAVTGNYFYYGMDVWGQGTTVTVSS VL: DIQMTQSPSAMSASVGDRVTITCRASQGISNYLVWFQQKPGKAPKRLIYAVSSLYSGVPSRFSGSGSGTEFTLTISSLQPEDFATYYCLQHDSYPYTFGQGTKLEIKR", "values": [{"measurement": "EC50", "setting": "[1]", "value": 3.94, "unit": "nM"}, {"measurement": "Emax", "setting": "[1]", "value": 1620}, {"measurement": "EC50", "setting": "[2]", "value": 3.42, "unit": "nM"}, {"measurement": "Emax", "setting": "[2]", "value": 963}, {"measurement": "IC50 (nM), cell killing caused by endocytosis of antibodies (DT3C, DMS53/DLL3 cells)", "setting": "[3]", "value": 3.27, "unit": "nM"}, {"measurement": "Imax, cell killing caused by endocytosis of antibodies (DT3C, DMS53/DLL3 cells)", "setting": "[3]", "value": 86.5}, {"measurement": "IC50 (read off the curve)", "setting": "[4]", "value": "~0.06", "unit": "µg/mL"}, {"measurement": "binding result", "setting": "[5]", "value": "no binding"}]}, {"molecule": "ADC-2 (antibody, human IgG1, kappa, V domains shown, linker-drug L-9 conjugated after TCEP reduction; sites not stated; linker-drug L-9 (ecteinascidin derivative) conjugated after TCEP reduction; sites not stated; DAR n=3.72-4.88 for the whole antibody) VH: EVQLVESGGGLVKPGGSLRLSCAASGFTFSDSGMHWIRQAPGKGLEWVSYISSGSSTIHYADTVKGRFTISRDNAKNSLYLQMNSLRAEDTAVYYCASPLYYYGRSYNAVAYWGQGTTVTVSS VL: DIQMTQSPSSLSASVGDRVTITCHASQNINVWLSWYQQKPGKVPKLLIYKASDLHTGVPSRFSGSGSGTDFTLTISSLQPEDVATYYCQQGQSYPLTFGGGTKVEIKR", "values": [{"measurement": "IC50 (nM), killing of DMS53 (+) cells", "setting": "[6]", "value": 13.1, "unit": "nM"}, {"measurement": "IC50 (nM), killing of H1184 (+++) cells", "setting": "[6]", "value": 0.11, "unit": "nM"}]}, {"molecule": "M6CHI (antibody, human IgG1, kappa, V domains shown, murine variable regions on human IgG1 / kappa constant regions; also called chimeric antibody of mAb6) VH: EVQLQQSGPVLVKPGASVKMSCKASGYTFTDYYMNWVKQSHGKSLEWIGIINPYSGVTIYNHKFKGKATLTVDKSSNTAYMELNSLTSEDSAVYYCARQDSLLDYAMDYWGQGTSVTVSS VL: DILMTQSPSSMSVSLGDTVSITCHASQGISGNMGWLQQKPGKSFKGLIYHGANLEDGVPSRFSGSGSGADYSLTISSLESEDFADYYCVQYAQFPYTFGGGTKLEIKR", "values": [{"measurement": "EC50", "setting": "[1]", "value": 0.14, "unit": "nM"}, {"measurement": "Emax", "setting": "[1]", "value": 3370}]}]}
